In PMC5066616, “Rapid dynamics of general transcription factor TFIIB binding during preinitiation complex assembly revealed by single-molecule analysis”:

Legend:
[1] = molecular target: TFIID–TFIIA complex on promoter DNA (TFIID–TFIIA–promoter complex) (human) (UniProt P20226); assay: single-molecule fluorescence colocalisation (TIRF); supercore promoter DNA and a mutant control template (-63 to +90) immobilised via biotin–streptavidin; dye-labelled factors injected with unlabelled ones; a signal within ∼40 nm of a DNA position counted as binding; 2.5 Hz; 11.3 mM HEPES pH 7.9, 5.6 mM MgCl2, 45 mM KCl; the target protein is DNA-bound
TFIID–TFIIA complex on promoter DNA (TFIID–TFIIA–promoter complex) (human), sequence (P20226 whole entry, looked up, one chain of several): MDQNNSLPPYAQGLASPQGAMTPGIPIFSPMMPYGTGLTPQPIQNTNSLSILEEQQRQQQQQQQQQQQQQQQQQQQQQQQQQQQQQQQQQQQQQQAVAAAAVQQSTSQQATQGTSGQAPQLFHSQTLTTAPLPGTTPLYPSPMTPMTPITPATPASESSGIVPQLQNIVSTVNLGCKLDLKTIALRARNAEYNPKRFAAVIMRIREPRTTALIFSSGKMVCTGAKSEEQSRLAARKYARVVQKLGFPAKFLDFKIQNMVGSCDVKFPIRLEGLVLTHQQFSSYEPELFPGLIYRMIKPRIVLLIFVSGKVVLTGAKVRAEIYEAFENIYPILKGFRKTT

[2] = molecular target: T1, TBP;TFIIA;TFIIB full length (human;human;human, UniProt P20226;P52655;P52657;Q00403 1-339;1-376;1-109;1-316, ||); assay: EMSA; 10 nM DNA; Single-molecule: 11.3 mM HEPES pH 7.9, 5.6 mM MgCl2, 45 mM KCl, 45 uM EDTA, 4.5% glycerol, 3.6 ng/ul tRNA, 0.1 ng/ul poly(dG:dC), 0.09% Tween 20, 0.0045% NP40; conditions: protein: recombinant;recombinant;recombinant; tags: N-terminal 6xHis-HaloTag; TMR; GST removed by Ulp1;N-terminal tag incl. thrombin site, Ni-NTA purified; Alexa647 or TMR; copies: 1;1;1;1; label: 5' Cy3 or Atto633; 5' biotin; blunt
T1 sequence (P20226 whole entry, chain 1 of 4): as the sequence (P20226 whole entry, looked up, one chain of several) above
T1 sequence (P52655 whole entry, chain 2 of 4): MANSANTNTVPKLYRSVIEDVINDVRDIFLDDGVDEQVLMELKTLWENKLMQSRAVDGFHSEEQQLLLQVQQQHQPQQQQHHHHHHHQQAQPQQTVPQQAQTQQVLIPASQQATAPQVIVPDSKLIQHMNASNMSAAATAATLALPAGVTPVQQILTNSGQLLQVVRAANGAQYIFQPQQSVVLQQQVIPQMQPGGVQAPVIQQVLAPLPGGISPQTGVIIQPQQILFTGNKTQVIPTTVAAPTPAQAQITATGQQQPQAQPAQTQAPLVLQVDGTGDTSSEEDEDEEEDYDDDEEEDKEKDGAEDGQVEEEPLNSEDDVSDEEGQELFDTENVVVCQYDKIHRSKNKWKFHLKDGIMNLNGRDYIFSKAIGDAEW
T1 sequence (P52657 whole entry, chain 3 of 4): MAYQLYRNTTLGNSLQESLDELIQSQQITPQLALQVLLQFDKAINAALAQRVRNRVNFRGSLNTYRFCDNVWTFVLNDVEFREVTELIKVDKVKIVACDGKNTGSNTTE
T1 sequence (Q00403 whole entry, chain 4 of 4): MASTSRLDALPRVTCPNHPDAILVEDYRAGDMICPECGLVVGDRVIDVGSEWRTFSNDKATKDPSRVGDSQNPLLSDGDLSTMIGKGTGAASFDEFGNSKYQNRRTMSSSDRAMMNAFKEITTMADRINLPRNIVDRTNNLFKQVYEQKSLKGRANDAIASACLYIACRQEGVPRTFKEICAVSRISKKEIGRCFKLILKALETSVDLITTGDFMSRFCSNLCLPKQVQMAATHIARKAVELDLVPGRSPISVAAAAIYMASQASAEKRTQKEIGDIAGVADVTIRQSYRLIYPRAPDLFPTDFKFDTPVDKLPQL

[3] = molecular target: T1, TBP;TFIIA;TFIIB full length; assay: EMSA; 10 nM DNA; similar efficiency to supercore; Single-molecule: 11.3 mM HEPES pH 7.9, 5.6 mM MgCl2, 45 mM KCl, 45 uM EDTA, 4.5% glycerol, 3.6 ng/ul tRNA, 0.1 ng/ul poly(dG:dC), 0.09% Tween 20, 0.0045% NP40; conditions: protein: recombinant;recombinant;recombinant; tags: N-terminal 6xHis-HaloTag; TMR; GST removed by Ulp1;N-terminal tag incl. thrombin site, Ni-NTA purified; Alexa647 or TMR; copies: 1;1;1;1; label: 5' Cy3 or Atto633; 5' biotin; blunt

“TFIIB, full-length (FL) (from UniProt Q00403 1-316) (natural protein)” gave a DNA-binding efficiency (percent of supercore templates colocalising with TFIIB) [1] of 30%, an average residence time [1] of 1.5 s and an average waiting time after TFIIA arrival (∼8 nM TFIIB) [1] of 3 s.

B1: Supercore promoter template, EMSA (dsDNA)
DNA 1: CATAACCATATGTATCATACACATACGGTACTTATATAAGGGGGTGGGGGCGCGTTCGTCCTCAGTCGCGATCGAACACTCGAGCCGAGCAGACGTGCCTACGGACCGCAAGCTTCCCTATCCCTTATCTTAACCACTCCAATTACATACACC
DNA 2: GGTGTATGTAATTGGAGTGGTTAAGATAAGGGATAGGGAAGCTTGCGGTCCGTAGGCACGTCTGCTCGGCTCGAGTGTTCGATCGCGACTGAGGACGAACGCGCCCCCACCCCCTTATATAAGTACCGTATGTGTATGATACATATGGTTATG
B1: binds [2].

B2: Mutant control template, EMSA (dsDNA)
DNA 1: CATAACCATATGTATCATACACATACGGTACACGTATGTGGGGGTGGGGGCGCGTTCGTCCTGTGACACGATCGAACACTCGAGCCGAGCAGCATAGCCTACGGACCGCAAGCTTCCCTATCCCTTATCTTAACCACTCCAATTACATACACC
DNA 2: GGTGTATGTAATTGGAGTGGTTAAGATAAGGGATAGGGAAGCTTGCGGTCCGTAGGCTATGCTGCTCGGCTCGAGTGTTCGATCGTGTCACAGGACGAACGCGCCCCCACCCCCACATACGTGTACCGTATGTGTATGATACATATGGTTATG
B2: binds [3].
